Measurements published in patent publication US20230272045A1 (published 2023).
Like-named read-outs stand apart in the source and are kept apart here.

Tests used:
Test in all cases: ELISA
human fibrinogen = target: T1, human fibrinogen (human, UniProt P02671 20-644; P02675 31-491; P02679 27-437)
T1 chain 1: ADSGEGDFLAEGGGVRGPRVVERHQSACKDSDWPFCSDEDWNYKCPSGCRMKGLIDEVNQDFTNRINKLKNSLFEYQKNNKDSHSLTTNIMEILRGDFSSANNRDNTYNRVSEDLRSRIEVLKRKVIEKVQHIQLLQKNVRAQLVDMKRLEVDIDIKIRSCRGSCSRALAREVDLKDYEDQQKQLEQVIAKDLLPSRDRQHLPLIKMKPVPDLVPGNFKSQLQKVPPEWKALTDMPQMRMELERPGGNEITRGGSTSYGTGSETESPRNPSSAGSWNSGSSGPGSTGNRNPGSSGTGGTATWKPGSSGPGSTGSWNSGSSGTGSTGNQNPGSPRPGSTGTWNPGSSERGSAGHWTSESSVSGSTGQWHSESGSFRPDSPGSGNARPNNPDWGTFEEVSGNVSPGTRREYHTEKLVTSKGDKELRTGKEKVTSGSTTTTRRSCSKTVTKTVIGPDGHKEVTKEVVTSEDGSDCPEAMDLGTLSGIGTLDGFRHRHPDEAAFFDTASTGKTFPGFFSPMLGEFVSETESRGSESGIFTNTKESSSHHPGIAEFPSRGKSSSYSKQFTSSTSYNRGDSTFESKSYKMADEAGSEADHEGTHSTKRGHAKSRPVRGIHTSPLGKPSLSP
T1 chain 2: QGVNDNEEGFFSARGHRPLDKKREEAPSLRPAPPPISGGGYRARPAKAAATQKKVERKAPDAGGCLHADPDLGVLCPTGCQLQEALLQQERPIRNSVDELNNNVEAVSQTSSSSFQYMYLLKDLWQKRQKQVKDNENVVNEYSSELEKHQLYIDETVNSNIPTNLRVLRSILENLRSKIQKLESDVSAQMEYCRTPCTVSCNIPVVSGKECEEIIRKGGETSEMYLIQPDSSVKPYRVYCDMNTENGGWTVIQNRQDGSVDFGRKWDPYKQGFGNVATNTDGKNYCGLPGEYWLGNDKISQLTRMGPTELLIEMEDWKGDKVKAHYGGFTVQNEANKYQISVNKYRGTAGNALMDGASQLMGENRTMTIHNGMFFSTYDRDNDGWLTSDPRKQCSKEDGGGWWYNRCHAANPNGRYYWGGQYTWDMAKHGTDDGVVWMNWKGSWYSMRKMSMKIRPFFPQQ
T1 chain 3: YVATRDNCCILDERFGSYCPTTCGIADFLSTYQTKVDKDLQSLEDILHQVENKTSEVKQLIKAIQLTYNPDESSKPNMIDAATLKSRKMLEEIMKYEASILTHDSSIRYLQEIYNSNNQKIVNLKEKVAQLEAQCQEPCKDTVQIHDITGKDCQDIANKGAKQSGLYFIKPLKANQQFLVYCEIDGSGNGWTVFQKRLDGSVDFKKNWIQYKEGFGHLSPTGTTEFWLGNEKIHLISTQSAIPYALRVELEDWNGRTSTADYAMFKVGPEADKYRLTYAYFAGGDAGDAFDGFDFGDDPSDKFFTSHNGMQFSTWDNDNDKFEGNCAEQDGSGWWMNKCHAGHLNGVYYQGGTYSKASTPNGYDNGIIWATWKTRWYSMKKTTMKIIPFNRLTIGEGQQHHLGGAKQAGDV

human vitronectin [1] = target: T2, human vitronectin (human, UniProt P04004 20-478)
T2 chain: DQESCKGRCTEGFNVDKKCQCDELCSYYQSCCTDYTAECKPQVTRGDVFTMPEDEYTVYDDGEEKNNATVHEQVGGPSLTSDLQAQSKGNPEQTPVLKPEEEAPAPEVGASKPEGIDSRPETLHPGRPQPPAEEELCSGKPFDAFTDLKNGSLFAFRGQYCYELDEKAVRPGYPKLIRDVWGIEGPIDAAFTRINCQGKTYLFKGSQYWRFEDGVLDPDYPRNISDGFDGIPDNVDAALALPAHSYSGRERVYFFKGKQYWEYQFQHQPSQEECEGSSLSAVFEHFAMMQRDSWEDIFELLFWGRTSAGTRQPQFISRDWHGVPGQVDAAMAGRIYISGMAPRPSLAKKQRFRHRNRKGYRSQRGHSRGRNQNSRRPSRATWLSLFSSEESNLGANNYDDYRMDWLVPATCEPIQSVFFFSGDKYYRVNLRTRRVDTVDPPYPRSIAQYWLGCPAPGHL

human plasma fibronectin [2] = target: T3, human plasma fibronectin (human, UniProt P02751 32-2296)
T3 sequence (P02751 other isoform, or with tags, fused parts or gaps): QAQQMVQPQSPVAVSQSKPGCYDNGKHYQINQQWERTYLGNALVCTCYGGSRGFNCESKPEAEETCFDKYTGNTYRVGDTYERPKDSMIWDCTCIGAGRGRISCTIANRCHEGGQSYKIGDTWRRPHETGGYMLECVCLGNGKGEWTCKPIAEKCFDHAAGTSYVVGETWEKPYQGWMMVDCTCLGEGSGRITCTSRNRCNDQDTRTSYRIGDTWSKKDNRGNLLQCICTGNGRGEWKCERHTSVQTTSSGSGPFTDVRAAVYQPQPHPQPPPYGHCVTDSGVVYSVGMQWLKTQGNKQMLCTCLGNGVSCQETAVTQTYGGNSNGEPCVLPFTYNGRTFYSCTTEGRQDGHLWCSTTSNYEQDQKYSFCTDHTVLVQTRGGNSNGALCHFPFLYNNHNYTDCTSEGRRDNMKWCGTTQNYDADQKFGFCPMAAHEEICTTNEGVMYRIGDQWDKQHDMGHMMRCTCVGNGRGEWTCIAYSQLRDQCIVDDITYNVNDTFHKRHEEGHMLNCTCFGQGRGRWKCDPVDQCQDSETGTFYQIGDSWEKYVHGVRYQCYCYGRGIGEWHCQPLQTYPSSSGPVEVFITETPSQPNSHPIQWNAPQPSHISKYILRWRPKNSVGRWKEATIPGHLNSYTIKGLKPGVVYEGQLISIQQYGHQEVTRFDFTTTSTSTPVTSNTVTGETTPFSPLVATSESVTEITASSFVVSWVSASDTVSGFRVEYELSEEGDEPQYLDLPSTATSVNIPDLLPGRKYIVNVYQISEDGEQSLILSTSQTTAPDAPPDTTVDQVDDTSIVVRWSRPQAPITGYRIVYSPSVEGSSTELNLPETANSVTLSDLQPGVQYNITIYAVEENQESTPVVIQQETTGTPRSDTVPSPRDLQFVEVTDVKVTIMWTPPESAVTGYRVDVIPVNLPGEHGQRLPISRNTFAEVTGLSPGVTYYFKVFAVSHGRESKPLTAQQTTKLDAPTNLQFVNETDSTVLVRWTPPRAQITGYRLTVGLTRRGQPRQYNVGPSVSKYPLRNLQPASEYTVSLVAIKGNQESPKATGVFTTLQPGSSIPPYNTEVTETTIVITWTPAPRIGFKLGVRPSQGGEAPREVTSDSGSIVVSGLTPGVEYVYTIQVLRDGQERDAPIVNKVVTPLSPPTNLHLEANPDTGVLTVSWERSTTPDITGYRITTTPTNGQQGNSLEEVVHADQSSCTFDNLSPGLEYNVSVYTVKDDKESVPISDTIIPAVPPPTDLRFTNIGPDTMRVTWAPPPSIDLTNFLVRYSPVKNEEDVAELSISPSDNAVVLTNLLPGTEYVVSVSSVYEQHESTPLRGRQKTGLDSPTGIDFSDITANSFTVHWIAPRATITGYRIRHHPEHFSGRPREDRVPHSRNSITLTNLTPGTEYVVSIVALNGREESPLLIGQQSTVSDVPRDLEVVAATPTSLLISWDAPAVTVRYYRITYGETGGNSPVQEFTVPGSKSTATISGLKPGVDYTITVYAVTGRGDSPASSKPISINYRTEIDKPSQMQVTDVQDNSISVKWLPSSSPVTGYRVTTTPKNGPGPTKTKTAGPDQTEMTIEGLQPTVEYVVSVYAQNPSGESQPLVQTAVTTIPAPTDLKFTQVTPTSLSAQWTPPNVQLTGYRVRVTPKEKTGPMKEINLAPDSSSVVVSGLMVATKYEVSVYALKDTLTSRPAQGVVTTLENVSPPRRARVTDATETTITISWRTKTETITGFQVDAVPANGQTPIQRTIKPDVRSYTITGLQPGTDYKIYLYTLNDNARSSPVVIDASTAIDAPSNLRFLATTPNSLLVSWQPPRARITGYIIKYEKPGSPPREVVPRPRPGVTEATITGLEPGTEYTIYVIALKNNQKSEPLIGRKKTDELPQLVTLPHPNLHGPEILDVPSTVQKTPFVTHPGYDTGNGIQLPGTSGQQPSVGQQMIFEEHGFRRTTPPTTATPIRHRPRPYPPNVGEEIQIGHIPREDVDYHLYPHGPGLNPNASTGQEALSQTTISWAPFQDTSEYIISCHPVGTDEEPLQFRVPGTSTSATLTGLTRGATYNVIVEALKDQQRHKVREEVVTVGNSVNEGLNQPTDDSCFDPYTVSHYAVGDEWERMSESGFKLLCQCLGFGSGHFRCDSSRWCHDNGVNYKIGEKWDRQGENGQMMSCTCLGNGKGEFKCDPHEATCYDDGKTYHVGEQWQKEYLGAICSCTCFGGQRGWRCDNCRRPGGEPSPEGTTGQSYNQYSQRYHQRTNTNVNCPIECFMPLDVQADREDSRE

human tenascin C = human tenascin C (human, UniProt P24821 23-2201)
Chain of human tenascin C (P24821 23-2201): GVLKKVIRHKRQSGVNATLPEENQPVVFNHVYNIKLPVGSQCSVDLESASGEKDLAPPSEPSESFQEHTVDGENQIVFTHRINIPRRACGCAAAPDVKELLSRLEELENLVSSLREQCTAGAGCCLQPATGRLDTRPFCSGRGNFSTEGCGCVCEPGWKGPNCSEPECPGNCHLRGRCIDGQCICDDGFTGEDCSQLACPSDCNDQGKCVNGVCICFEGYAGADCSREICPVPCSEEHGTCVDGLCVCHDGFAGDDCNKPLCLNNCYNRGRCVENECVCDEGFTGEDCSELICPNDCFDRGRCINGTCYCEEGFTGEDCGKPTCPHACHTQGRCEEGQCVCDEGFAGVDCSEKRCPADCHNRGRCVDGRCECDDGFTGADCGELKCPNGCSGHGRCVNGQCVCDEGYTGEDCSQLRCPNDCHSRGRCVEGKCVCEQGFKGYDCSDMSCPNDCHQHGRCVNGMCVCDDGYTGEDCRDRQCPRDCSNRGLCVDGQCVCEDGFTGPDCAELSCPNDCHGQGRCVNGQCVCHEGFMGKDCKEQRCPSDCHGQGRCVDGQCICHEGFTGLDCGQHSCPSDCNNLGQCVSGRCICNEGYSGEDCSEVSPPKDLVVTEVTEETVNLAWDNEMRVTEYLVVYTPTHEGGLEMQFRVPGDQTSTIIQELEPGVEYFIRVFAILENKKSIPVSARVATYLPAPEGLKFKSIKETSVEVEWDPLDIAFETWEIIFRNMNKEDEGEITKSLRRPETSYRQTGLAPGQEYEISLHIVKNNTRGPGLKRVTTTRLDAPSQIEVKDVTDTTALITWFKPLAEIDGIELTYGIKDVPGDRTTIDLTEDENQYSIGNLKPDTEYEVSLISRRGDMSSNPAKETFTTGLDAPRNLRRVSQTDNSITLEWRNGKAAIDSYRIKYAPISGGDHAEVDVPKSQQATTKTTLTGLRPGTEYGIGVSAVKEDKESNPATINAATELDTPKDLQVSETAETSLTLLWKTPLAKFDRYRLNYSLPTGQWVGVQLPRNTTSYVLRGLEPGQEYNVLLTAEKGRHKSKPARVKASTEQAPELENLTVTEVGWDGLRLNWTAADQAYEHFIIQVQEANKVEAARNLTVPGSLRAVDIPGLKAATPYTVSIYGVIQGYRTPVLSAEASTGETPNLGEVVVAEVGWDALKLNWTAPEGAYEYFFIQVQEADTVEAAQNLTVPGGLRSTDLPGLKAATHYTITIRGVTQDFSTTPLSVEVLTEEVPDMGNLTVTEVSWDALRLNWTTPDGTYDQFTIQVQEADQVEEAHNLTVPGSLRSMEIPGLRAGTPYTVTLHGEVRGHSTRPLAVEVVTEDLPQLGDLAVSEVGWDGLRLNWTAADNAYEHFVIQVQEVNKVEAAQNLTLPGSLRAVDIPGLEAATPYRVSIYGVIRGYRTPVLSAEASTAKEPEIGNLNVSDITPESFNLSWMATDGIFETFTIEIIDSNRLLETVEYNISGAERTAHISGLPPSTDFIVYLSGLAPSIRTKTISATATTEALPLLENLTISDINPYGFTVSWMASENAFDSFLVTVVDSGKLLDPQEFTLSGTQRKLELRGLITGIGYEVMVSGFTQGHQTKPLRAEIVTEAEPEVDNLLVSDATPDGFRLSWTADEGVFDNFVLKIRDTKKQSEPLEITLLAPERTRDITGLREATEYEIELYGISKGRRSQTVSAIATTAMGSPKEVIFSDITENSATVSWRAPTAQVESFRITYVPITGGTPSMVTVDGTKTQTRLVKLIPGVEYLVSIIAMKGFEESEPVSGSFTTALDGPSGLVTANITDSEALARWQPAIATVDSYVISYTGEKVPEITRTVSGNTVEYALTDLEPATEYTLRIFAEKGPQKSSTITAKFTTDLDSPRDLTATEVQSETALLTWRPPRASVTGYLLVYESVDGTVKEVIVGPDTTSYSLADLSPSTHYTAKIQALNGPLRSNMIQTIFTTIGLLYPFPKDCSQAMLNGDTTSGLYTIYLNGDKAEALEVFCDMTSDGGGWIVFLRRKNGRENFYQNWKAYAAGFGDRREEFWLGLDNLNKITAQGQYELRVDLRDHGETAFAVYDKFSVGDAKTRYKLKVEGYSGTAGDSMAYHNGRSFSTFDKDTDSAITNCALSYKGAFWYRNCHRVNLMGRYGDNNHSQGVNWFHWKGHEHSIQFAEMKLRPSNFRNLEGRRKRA

human vitronectin [3] = target: T2, human vitronectin
human plasma fibronectin [4] = target: T3, human plasma fibronectin; remark: listed apart in the source

B1: BMP-2 (bone morphogenetic protein-2, Peprotech) (ligand)
chain: QAKHKQRKRLKSSCKRHPLYVDFSDVGWNDWIVAPPGYHAFYCHGECPFPLADHLNSTNHAIVQTLVNSVNSKIPKACCVPTELSAISMLYLDENEKVVLKNYQDMVVEGCGCR
Work on B1 yielded a Kd (human fibrinogen) of 46.4 nM, a Kd (human vitronectin [1]) of 12.6 nM and a Kd (human plasma fibronectin [2]) of 49.9 nM. The Kd (human tenascin C) was 19.5 nM.

B2: PDGF-BB (murine wild-type platelet-derived growth factor-BB) (ligand)
chain: SLGSLAAAEPAVIAECKTRTEVFQISRNLIDRTNANFLVWPPCVEVQRCSGCCNNRNVQCRASQVQMRPVQVRKIEIVRKKPIFKKATVTLEDHLACKCETIVTPRPVT
Binder B2 has a Kd (human vitronectin [3]) of 29.8 nM and a Kd (human plasma fibronectin [4]) of 60.2 nM.
